The values that follow come from the supplement of paper PMC12764529.

Data set [1] in a line: folding stability dG unfold from trypsin proteolysis; higher = more stable. The method in brief: (§1)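 Unfolding free energy was derived, per protease or combined, by relating Bayesian-fitted K50 values from sequencing counts to a sequence-predicted unfolded-state K50 and a shared folded-state K50. The underlying digests exposed cysteine-free mini-proteins under 80 residues, in a PA-tagged cDNA display construct, to trypsin and chymotrypsin at 11 threefold-diluted concentrations and to a no-protease condition. A filter kept only designs with AlphaFold2 dimer inter-PAE above 15.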

Data set [2] in a line: folding stability dG unfold (combined trypsin and chymotrypsin); higher = more stable. The method in brief: as §1
A short description of data set [3]: folding stability dG unfold from chymotrypsin proteolysis; higher = more stable. The method in brief: as §1

± gives the half width of the 95% confidence interval.

For the sequence “SAGGYVTSPMSPEIEAKAKEAGKTIDEAKELVIPVNDGGKFRTVKVTFYPETGTVAFYYEDTGEWSNLLSAG [r5_545_JUSTAS]”, the “folding stability dG unfold” value in data set [1] was found to be 0.499 ± 0.12 kcal/mol; in data set [2] it was 0.957 ± 0.22 kcal/mol; in data set [3], 1.05 ± 0.19 kcal/mol.
The corresponding values for “SAGHPWMFRAKVEYDDGKPVGEREINIPGMPIDDIASDLFNEPGLRKVKIEFYWMDGEPQEIEIPVKPSAGG [r19_269_TrROS]” are 0.801 ± 0.097 kcal/mol, 0.689 ± 0.21 kcal/mol and 0.457 ± 0.28 kcal/mol.
For “SAGIKEIAKKLGFPIHSVKPTEPDPENGKLKWTVIFRNEKNNYYVIEIDLDDPEKIEIERFPPGEEIPSAGG [r19_72_TrROS]”, in that order: 1.21 ± 0.13 kcal/mol, 1.39 ± 0.21 kcal/mol and 1.61 ± 0.12 kcal/mol.
As to “SAGIKIKDISRDPNGYVEVTIVYPPGKSIKEIIELIRKLFGFKIEKVEIYPSPNGVYITYRFRIPEGAISAG [r5_774_TrROS]”, the “folding stability dG unfold” value came to 3.15 ± 0.11 kcal/mol in data set [1], 4.13 ± 0.12 kcal/mol in data set [2] and 4.47 ± 0.058 kcal/mol in data set [3].
As to “SAGIKPGEKIEKVEIVKVEVKKNKDGSKTVTVTIKLKDGKTITIKPGETIEIKIENKKEGEKITLKVKSAGG [r19_199_TrROS_Hall]”, the entries for the “folding stability dG unfold” value in data set [1], in data set [2] and in data set [3] were 1.45 ± 0.13 kcal/mol, 1.74 ± 0.16 kcal/mol and 1.91 ± 0.13 kcal/mol, respectively.
For “SAGIPYRVLELEIPGVGVRVEVRLAPDGRIVEVRVTVVPVPPVPPALPLRPELLVPDEDGRWYSPEELLSAG [r5_685_TrMRF]”, in that order: 2.68 ± 0.059 kcal/mol, 2.44 ± 0.11 kcal/mol and 2.26 ± 0.028 kcal/mol.
The corresponding values for “SAGITIRLPGAEIEVQRYPHPGNGMPMYRVTVELENPEGKKPKVDVIFPPNQPPGQVENVARYIAKELKSAG [r5_704_TrROS]” are 0.858 ± 0.13 kcal/mol, 0.472 ± 0.16 kcal/mol and -0.302 ± 0.28 kcal/mol.
The corresponding values for “SAGIYIPMDMTIDELVDILQKFGIRSVTTERMPEPGMYKATLKFPDLTIEIWYHPNWMHIEIVPPGEPISAG [r5_899_TrROS]” are 2.77 ± 0.12 kcal/mol, 3.85 ± 0.23 kcal/mol and 4.18 ± 0.07 kcal/mol.
Consider “SAGKETIKIKLFDKNGKLIAEIEIEKLPDGTYKIKIKNKKTGKELEIEVKIEDGKIYIKLPNGAILEIESAG [r5_809_TrROS_Hall]”, for which the “folding stability dG unfold” value in data set [1] stood at 3.51 ± 0.19 kcal/mol; in data set [2] it was 5.04 ± 0.2 kcal/mol; in data set [3], 5.13 ± 0.2 kcal/mol.
As to “SAGKEVIVITVEELEKLLKALKPGEKVKIVVINKDGKKVTFTAEVKDGKVEIKEAEKDIKPGDKIFIEKSAG [r5_85_TrROS_Hall]”, the “folding stability dG unfold” value in data set [1] stood at 1.85 ± 0.17 kcal/mol; in data set [2], 3.09 ± 0.46 kcal/mol; in data set [3] it was 3.49 ± 0.28 kcal/mol.
On to “SAGKFKITNISPMEERKPEDDKWEEQPYIMIRMRWKDPQKALDEIKEEFGYPVNIQRDPDDGWATIMIPSAG [r5_907_TrROS]”, for which the figures for the “folding stability dG unfold” value in data set [1], in data set [2] and in data set [3] were 0.137 ± 0.2 kcal/mol, 0.248 ± 0.11 kcal/mol and 0.231 ± 0.18 kcal/mol, respectively.
For “SAGKIEIEVNEDGYKVRIKVEIEGKTYEFEIKVEGLSVEEIVKKALEELKKLFPNKKIKVEVEILPKKESAG [r5_180_TrROS_Hall]”, in that order: 4.14 ± 0.21 kcal/mol, 4.9 ± 0.54 kcal/mol and 4.81 ± 0.3 kcal/mol.
For “SAGKIEILDEKPYKDSITVVAKLPGTDEIIVLTYNPKTKTVEIKIFPPKGVKTIPVKAKDIEKALKEIASAG [r5_769_TrMRF]”, in that order: 0.728 ± 0.072 kcal/mol, 1.7 ± 0.25 kcal/mol and 2.18 ± 0.16 kcal/mol.
On to “SAGKIEKIVITKKKDGYVIKVYYKDNKKVKTYKAGKTLEEIKKKLEEEGFEIVKVEVKKVKPGEKVEISAGG [r19_386_TrROS_Hall]”, for which the “folding stability dG unfold” value in data set [1] amounted to 2.32 ± 0.18 kcal/mol; in data set [2], 3.06 ± 0.43 kcal/mol; in data set [3], 3.23 ± 0.21 kcal/mol.
As to “SAGKIKIEVEYLDPNGDWRRYEHTIPFKPNQSFEEAINELLPPGLREIKITEVDPEEGTIKIDIWIRPDSAG [r5_227_TrROS]”, the results for the “folding stability dG unfold” value in data set [1], in data set [2] and in data set [3] were 2.12 ± 0.13 kcal/mol, 2.41 ± 0.19 kcal/mol and 2.5 ± 0.061 kcal/mol, respectively.
For “SAGKIPPIKDIEPNPDNGMLMITIPFPDDGKLKVRIENKGQDQEYEFPPGMSFMIPPSNAPIKIEIEWDSAG [r14_96_TrROS]”, in that order: 0.858 ± 0.019 kcal/mol, 0.874 ± 0.098 kcal/mol and 0.82 ± 0.069 kcal/mol.
Turning to “SAGKITLDGFTLDGEQTLTLTVEVPAPGGGTRTETFTATVTFDPETGTAHVPVTLPNGEELPFTFKVDASAG [r5_743_TrMRF]”, the “folding stability dG unfold” value in data set [1] turned out to be 1.18 ± 0.024 kcal/mol; in data set [2], 1.42 ± 0.075 kcal/mol; in data set [3], 1.52 ± 0.09 kcal/mol.
For “SAGKKIELTFRNPDGWMIRITIEKKPNGGFQITEITWEPYPNGRMSAKIYVPNGKTIEVNSWDDILDALSAG [r5_618_TrROS]”, in that order: 1.09 ± 0.038 kcal/mol, 2.12 ± 0.12 kcal/mol and 2.57 ± 0.075 kcal/mol.
For “SAGKKITAEELAKKIAEELGLPEDAKVEVEEVDGTIYIRVEGYVIKITVKDGEITIEIKPAPASPEALKSAG [r5_190_TrROS_Hall]”, in that order: 1.53 ± 0.044 kcal/mol, 2.43 ± 0.28 kcal/mol and 2.91 ± 0.11 kcal/mol.
The corresponding values for “SAGKKKKIKIKVKIIVNGKLKEIEIEVDENKTLEEILAEIKKKLPKNAIIIITNENGEKKIIILPKEELSAG [r5_77_TrROS_Hall]” are 2.49 ± 0.24 kcal/mol, 1.89 ± 0.45 kcal/mol and 1.58 ± 0.1 kcal/mol.
With “SAGKKKKIKKIEIEIEKNKDGKEIKVKVKVDGKEYEFTFPKNMSLEELLKKLKEELEKEGLKIEEVEIKSAG [r5_305_TrROS_Hall]”, the figures for the “folding stability dG unfold” value in data set [1], in data set [2] and in data set [3] were 2.5 ± 0.13 kcal/mol, 2.73 ± 0.18 kcal/mol and 2.8 ± 0.13 kcal/mol, respectively.
For “SAGKKKKYKIKIKIEISEDGTIKITIEIFDKNGKLVKKIEITIKLPKVKLSEEELKEAAKKGDLEKALKSAG [r5_944_TrROS_Hall]”, in that order: 2.23 ± 0.28 kcal/mol, 2.95 ± 0.7 kcal/mol and 3.6 ± 0.28 kcal/mol.
In the case of “SAGKKKVIIVKVKPEDLEKLLEAIKKLPKEKVKRIEIEVNGKLYLIEVTDKEIKIYDIETGEEKTIKLSAGG [r19_154_TrROS_Hall]”, the “folding stability dG unfold” value is 2.1 ± 0.22 kcal/mol in data set [1], 2.39 ± 0.56 kcal/mol in data set [2] and 2.6 ± 0.061 kcal/mol in data set [3].
The corresponding values for “SAGKKKVLLAVDPENNALVLVEYETVGDVTFVRSLVFHGNTTTETLGLVRVIEPGKTEKLLISVPIPPSAGG [r19_292_TrMRF]” are 2.07 ± 0.047 kcal/mol, 2.26 ± 0.13 kcal/mol and 2.3 ± 0.05 kcal/mol.
The corresponding values for “SAGKKLFIKVKIRVKKKVKLKDGKTVEKEKELTLLIEAESEEEALEAAKKLAEELGLEIEKVEIFKAPSAGG [r19_176_TrROS_Hall]” are 2.41 ± 0.15 kcal/mol, 3.09 ± 0.27 kcal/mol and 3.75 ± 0.16 kcal/mol.
The corresponding values for “SAGKKLIIRVEVYRREKNENGEIKKVTETLEVPPGATIEELVKALAPPGYTIRIEIIENGKIIETIEIKSAG [r5_278_TrROS_Hall]” are 2.14 ± 0.16 kcal/mol, 3.23 ± 0.31 kcal/mol and 3.59 ± 0.086 kcal/mol.
As to “SAGKKQEVTIMIPIRGPAQAREQVEEFANDFPIKPTRVHPNPNKNHYWVMVTMKVPGAKIKIMIWIPPSAGG [r19_262_TrROS]”, the results for the “folding stability dG unfold” value in data set [1], in data set [2] and in data set [3] were 2.94 ± 0.11 kcal/mol, 3.67 ± 0.13 kcal/mol and 4.19 ± 0.057 kcal/mol, respectively.
On to “SAGKKSTLTIDLPGSTVTLTYDPATGKVRITVNLGVAVAGIDPETGKPGIVTGSVTLEADIDVPPGAPISAG [r5_195_TrMRF]”, for which the “folding stability dG unfold” value in data set [1] came to 2.61 ± 0.16 kcal/mol; in data set [2], 2.65 ± 0.15 kcal/mol; in data set [3], 2.68 ± 0.057 kcal/mol.
“SAGKKTIIIKIPPNMTVEELKKALKNLKPNEKVTITVNGKKYTITVKDGKIKITFPENVKNMILIIEVKSAG [r5_373_TrROS_Hall]”: the figures for the “folding stability dG unfold” value in data set [1], in data set [2] and in data set [3] were 2.08 ± 0.13 kcal/mol, 2.4 ± 0.36 kcal/mol and 2.54 ± 0.057 kcal/mol, respectively.
In the case of “SAGKKTVTIVIRLKEPGERLSAEELAALLRELGLPPGAKVTVERRPDGYLVVTVEVDGKTVTIVIELEDSAG [r5_144_TrROS_Hall]”, the entries for the “folding stability dG unfold” value in data set [1], in data set [2] and in data set [3] were 2.04 ± 0.04 kcal/mol, 2.34 ± 0.056 kcal/mol and 2.516 ± 0.019 kcal/mol, respectively.
For “SAGKKVKKITLTIKNKETGEYYKAEVIENENGEKYIKIINKKTGKIYIFKIKDGKIEPVKEISLKDIKPSAG [r5_619_TrROS_Hall]”, in that order: 1.85 ± 0.067 kcal/mol, 2.83 ± 0.2 kcal/mol and 3.11 ± 0.053 kcal/mol.
For “SAGKKVRIWIVFDGDPEQAKYLAEEIAKELRQKDGHKNVDIEVIPPGQDMHQMMEWAEENNVDIVIMVSAGG [r19_89_TrROS]”, the “folding stability dG unfold” value came to 2.68 ± 0.15 kcal/mol in data set [1], 3.59 ± 0.13 kcal/mol in data set [2] and 3.85 ± 0.19 kcal/mol in data set [3].
On to “SAGKKVTIKAIVRVKLANGEWFEAKVKEVTFDEETGEVTITVEVDGKTYTITVPLEDIELVDDAEEALKSAG [r5_15_TrROS_Hall]”, for which the “folding stability dG unfold” value in data set [1] worked out at 2.19 ± 0.034 kcal/mol; in data set [2] it was 3.25 ± 0.063 kcal/mol; in data set [3] it was 3.72 ± 0.064 kcal/mol.
On to “SAGKMLVVRIEVEVEVEVTVEKDGKKETFKEKKKLTLTLVFESEEEAEAAKKELEKLFPDLKIEVVPLPSAG [r5_453_TrROS_Hall]”, for which the “folding stability dG unfold” value in data set [1] is 4.43 ± 0.47 kcal/mol; in data set [2], 4.54 ± 0.2 kcal/mol; in data set [3], 4.56 ± 0.16 kcal/mol.
The corresponding values for “SAGKMYLIVIKVDGKEYVIVIPEEEMSEEEIRKLISEELGISEEEVEIVEIVPVEPGESVEEALKKALESAG [r5_900_TrROS_Hall]” are 2.77 ± 0.14 kcal/mol, 3.94 ± 0.15 kcal/mol and 4.23 ± 0.074 kcal/mol.
